# Data as given in patent publication US20070224196A1 (ELUSYS THERAPEUTICS, published 2007).
# Numbering of substitutions follows the chain as printed.
# B1: E DI VH4/VL2 (antibody, V domains shown)
# VH: DVQLQESGPGLVKPSQTLSLTCTVSGYSITSDYAWNWIRQFPGKGLEWIGYISYSGSTSYHPSLKSRISISRDTSKNQFFLQMNSVTTEDTATYYCTTIINYDKYDWYFDVWGQGTTVTVSS
# VL: DIVLTQSPASLVVSVRQRATISCRASQSVRTSSYSYIHWYQQKPGQPPKLLIKYASSLESGVPARFSGSGSGTDFTLNISPVEEEDTATYYCQHSWEIPWTFGPGTTVEIK
# notes: also called E DI V4/VL2
# B2: E DI VH2/VL1 44H1 (antibody, V domains shown)
# VH: B1 VH with I29M, L64V, S69T
# VL: B1 VL with K53Y, T107K
# notes: also called immunogenicity-reduced Ab VH2/VL1
# B3: E DI VH1/VL2 (antibody, V domains shown)
# VH: B1 VH with I29M, S59T, L64V, S69T, Y94T, V111Y
# VL: B1 VL
# B4: E DI VH3/VL2 15A12 (antibody, V domains shown)
# VH: B1 VH with I29M
# VL: B1 VL
# notes: also called immunogenicity-reduced Ab VH3/VL2
# B5: E DI VH3/VL1 12H10 (antibody, V domains shown)
# VH: B1 VH with I29M
# VL: B1 VL with K53Y, T107K
# notes: also called immunogenicity-reduced Ab VH3/VL1
# B6: E DI VH5/VL1 (antibody, V domains shown)
# VH: B1 VH with S25T, I49M
# VL: B1 VL with K53Y, T107K
# notes: also called immunogenicity-reduced Ab VH5/VL1
# Biological target: T1, human erythrocyte complement receptor 1 (CR1) (human, UniProt P17927 42-2039)
# T1 construct: whole, on cells; also called C3b receptor; CD35
# Experiment: erythrocyte binding assay (FIGS. 10-13)
# T1 sequence (P17927 42-2039): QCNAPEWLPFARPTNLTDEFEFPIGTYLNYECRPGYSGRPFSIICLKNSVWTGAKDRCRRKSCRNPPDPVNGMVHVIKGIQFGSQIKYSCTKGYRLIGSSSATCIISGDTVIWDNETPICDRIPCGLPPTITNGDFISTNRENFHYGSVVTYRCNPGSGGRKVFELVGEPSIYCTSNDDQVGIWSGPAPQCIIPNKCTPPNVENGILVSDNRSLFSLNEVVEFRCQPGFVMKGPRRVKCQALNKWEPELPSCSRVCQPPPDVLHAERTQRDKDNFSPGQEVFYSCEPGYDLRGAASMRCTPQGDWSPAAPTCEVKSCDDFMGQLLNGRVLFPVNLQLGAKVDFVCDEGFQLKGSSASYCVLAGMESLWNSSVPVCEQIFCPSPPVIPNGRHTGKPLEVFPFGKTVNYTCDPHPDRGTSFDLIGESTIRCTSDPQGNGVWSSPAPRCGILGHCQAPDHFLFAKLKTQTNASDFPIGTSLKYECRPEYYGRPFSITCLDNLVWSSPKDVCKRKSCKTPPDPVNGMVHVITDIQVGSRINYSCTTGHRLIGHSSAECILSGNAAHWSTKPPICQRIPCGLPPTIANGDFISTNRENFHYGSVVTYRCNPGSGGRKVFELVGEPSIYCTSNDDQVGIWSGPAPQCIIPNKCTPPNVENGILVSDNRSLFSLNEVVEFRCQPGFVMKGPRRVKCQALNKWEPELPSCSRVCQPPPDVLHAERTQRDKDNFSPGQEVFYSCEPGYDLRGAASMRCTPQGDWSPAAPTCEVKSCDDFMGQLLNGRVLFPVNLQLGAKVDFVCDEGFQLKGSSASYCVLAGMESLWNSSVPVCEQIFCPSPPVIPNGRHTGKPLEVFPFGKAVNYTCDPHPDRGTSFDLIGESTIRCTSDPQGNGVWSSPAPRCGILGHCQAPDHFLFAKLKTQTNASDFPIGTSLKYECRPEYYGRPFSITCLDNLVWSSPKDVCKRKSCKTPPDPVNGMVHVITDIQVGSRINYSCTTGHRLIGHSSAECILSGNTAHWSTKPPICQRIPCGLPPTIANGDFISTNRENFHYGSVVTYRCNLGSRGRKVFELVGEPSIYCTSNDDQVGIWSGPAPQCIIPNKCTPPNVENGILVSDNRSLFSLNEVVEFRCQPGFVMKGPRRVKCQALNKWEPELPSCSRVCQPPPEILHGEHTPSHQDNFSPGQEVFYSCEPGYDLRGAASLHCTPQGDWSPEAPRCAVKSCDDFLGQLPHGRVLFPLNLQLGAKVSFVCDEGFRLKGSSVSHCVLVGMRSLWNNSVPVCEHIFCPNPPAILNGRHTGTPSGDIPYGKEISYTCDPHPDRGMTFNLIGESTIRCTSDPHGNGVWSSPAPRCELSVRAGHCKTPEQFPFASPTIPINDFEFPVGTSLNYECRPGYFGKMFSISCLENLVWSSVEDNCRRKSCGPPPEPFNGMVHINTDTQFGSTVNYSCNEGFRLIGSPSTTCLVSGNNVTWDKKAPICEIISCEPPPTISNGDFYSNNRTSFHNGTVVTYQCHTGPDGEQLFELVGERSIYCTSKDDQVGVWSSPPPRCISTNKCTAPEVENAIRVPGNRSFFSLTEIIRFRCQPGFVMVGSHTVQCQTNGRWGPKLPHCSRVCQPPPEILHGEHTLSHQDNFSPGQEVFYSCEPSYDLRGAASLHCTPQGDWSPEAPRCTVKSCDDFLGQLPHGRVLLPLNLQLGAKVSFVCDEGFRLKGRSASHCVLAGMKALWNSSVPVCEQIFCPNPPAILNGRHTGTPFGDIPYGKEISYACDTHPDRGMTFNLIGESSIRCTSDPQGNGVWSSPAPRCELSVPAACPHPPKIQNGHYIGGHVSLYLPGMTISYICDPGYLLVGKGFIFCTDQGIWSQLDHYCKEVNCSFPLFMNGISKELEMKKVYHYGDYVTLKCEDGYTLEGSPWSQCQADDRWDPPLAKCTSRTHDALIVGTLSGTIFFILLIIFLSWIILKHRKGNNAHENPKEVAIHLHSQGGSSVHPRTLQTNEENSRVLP
row,Binder,fold reduction of binding compared to the chimeric antibody [fold]
1,B1,~10
2,B2,~2
3,B3,~10
4,B4,~10

# Biological target: T1, human erythrocyte complement receptor 1 …
# Experiment: erythrocyte binding assay, antibody with RBCs in solution, A405 read-out
row,Binder,ng of antibody at A405 0.4 [ng]
1,B1,30
2,B5,4
3,B2,12
4,B3,9
5,B6,2
